# US20210087281A1 (AGOMAB THERAPEUTICS, published 2021)
# B1: 71G12 chimeric llama-human IgG1 mAb (antibody, V domains shown)
# VH: QVQLQESGGDLVQPGGSLRVSCVVSGFTFSRYYMSWVRQAPGKGLEWVSSIDSYGYSTYYTDSVKGRFTISRDNAKNTLYLQMNSLKPEDTALYYCARAKTTWSYDYWGQGTQVTVSS
# VL: EIVLTQSPSSVTASVGGKVTINCKSSQSVFIASNQKTYLNWYQQRPGQSPRLVISYASTRESGIPDRFSGSGSTTDFTLTISSVQPEDAAVYYCQQAYSHPTFGQGTKVELK
# notes: llama VH on human IgG1 CH1-CH2-CH3, llama VL on human kappa CL
# B2: 76G7 chimeric llama-human IgG1 mAb (antibody, V domains shown)
# VH: QVQLVESGGNLVQPGGSLRLSCAASGFTFSNYYMSWVRQAPGKGLEWVSDIYSDGSTTWYSDSVKGRFTISRDNAKNTLSLQMNSLKSEDTAVYYCARVKIYPGGYDAWGQGTQVTVSS
# VL: QAGLTQPPSVSGSPGKTVTISCAGNSSDVGYGNYVSWYQQFPGMAPKLLIYLVNKRASGITDRFSGSKSGNTASLTISGLQSEDEADYYCASYTGSNNIVFGGGTHLTVL
# notes: llama VH on human IgG1 CH1-CH2-CH3, llama VL on human lambda CL
# Legend:
# [1] = molecular target: T1, native human MET on living cells (human, UniProt P08581 25-1390); assay: cell-based or functional assay
# T1 sequence (P08581 25-1390): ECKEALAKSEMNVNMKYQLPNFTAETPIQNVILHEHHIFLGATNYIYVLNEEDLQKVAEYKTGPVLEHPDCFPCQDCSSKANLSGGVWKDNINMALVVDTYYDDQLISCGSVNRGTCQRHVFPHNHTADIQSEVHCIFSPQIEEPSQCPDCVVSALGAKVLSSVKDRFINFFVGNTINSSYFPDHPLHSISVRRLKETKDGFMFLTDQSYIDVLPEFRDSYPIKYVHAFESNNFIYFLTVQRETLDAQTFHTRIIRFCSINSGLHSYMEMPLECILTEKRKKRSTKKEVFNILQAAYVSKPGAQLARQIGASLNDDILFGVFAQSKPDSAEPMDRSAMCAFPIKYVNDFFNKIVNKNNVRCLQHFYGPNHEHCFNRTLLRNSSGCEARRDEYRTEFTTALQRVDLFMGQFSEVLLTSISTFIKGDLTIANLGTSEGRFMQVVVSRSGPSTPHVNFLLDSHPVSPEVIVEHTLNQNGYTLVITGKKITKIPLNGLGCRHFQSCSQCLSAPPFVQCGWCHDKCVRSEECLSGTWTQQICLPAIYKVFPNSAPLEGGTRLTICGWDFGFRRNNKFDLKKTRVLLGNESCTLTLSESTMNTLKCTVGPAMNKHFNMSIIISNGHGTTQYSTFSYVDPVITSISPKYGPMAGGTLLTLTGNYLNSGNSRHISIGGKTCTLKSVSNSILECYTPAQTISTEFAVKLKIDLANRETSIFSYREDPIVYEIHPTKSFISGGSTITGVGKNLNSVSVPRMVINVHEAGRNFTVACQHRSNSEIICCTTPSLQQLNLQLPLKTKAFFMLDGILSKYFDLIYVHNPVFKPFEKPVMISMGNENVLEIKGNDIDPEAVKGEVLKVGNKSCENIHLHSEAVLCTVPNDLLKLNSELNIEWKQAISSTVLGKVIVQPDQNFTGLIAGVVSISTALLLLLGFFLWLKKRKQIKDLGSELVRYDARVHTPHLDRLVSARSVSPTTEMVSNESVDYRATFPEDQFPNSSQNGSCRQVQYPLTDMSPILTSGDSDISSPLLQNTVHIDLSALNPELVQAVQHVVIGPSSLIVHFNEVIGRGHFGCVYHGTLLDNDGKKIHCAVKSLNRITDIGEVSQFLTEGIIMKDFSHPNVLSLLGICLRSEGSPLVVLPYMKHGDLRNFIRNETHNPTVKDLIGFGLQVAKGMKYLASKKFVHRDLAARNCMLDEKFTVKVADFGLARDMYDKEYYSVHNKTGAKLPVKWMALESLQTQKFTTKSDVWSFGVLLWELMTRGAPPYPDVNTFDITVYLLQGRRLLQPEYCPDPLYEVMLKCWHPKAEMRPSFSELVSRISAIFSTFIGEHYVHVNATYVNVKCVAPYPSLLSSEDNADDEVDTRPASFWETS
# [2] = molecular target: T2, native mouse MET on living cells (mouse, UniProt P16056 25-1379); assay: cell-based or functional assay
# [3] = molecular target: T1, native human MET on living cells; assay: cell-based or functional assay; remark: listed apart in the source
# [4] = molecular target: T2, native mouse MET on living cells; assay: cell-based or functional assay; remark: listed apart in the source
# [5] = molecular target: T1, native human MET on living cells; assay: cell-based or functional assay; remark: listed apart in the source
# [6] = molecular target: T2, native mouse MET on living cells; assay: cell-based or functional assay; remark: listed apart in the source
# [7] = molecular target: T1, native human MET on living cells; assay: cell-based or functional assay; remark: listed apart in the source
# [8] = molecular target: T2, native mouse MET on living cells; assay: cell-based or functional assay; remark: listed apart in the source
# [9] = molecular target: T1, native human MET on living cells; assay: flow cytometry, A549 cells
# Protocol: (§1) We also analysed whether chimeric anti-MET antibodies bound to native human and mouse MET in living cells. […] Antibody binding to cells was analysed by flow cytometry using phycoerythrin-conjugated anti-human IgG1 antibodies (eBioscience) and a CyAn ADP analyser (Beckman Coulter). As a positive control for human MET binding, we used a commercial mouse anti-human MET antibody (R&D Systems) and phycoerythrin-conjugated anti-mouse IgG1 antibodies (eBioscience).
# (§2) As a positive control for mouse MET binding we used a commercial goat anti-mouse MET antibody (R&D Systems) and phycoerythrin-conjugated anti-goat IgG1 antibodies (eBioscience). […] Consistent with the data obtained in ELISA, maximal binding (EMAX) varied depending on antibody, but was similar in human and mouse cells.
# [10] = molecular target: T2, native mouse MET on living cells; assay: flow cytometry, MLP29 cells
# Protocol: as §1, §2
# human MET ECD = molecular target: T3, human MET ECD (human, UniProt P08581 25-932); assay: ELISA, MET ECD in solid phase, mAb 0-20 nM
# T3 construct: range 1-932; recombinant ECD made by the applicants; the stated range begins at residue 1, so it includes the signal peptide of the entry; also called hMET; hMET ECD
# T3 sequence (P08581 25-932 limits assumed, form in doubt): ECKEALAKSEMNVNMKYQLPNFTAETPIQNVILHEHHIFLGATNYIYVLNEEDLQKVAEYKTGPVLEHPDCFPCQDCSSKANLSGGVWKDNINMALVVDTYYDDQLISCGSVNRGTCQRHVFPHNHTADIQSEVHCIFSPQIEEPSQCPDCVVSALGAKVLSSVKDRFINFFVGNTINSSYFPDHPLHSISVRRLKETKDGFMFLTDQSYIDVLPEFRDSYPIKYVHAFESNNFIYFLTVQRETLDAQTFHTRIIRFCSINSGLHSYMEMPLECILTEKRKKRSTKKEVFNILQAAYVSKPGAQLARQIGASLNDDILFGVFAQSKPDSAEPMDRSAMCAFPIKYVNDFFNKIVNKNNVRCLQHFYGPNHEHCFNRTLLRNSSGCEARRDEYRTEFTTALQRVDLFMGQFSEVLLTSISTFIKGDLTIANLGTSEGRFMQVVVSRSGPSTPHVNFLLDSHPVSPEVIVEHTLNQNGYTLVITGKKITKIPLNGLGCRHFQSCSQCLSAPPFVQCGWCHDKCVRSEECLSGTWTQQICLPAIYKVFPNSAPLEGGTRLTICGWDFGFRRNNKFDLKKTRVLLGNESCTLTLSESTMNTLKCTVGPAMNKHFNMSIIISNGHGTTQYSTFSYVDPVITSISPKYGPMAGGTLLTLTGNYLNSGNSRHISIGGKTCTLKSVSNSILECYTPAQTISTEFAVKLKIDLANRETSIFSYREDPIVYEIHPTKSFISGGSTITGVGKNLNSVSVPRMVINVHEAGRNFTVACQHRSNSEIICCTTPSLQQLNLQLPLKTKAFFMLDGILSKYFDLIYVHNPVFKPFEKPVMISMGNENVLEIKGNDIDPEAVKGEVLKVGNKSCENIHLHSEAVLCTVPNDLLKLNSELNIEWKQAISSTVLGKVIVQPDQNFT
# Protocol: (§3) Production (by transient transfection of mammalian cells) and purification (by protein A affinity chromatography) of the resulting chimeric llama-human IgG1 molecules was outsourced to U-protein Express. Binding of chimeric mAbs to MET was determined by ELISA using hMET or mMET ECD in solid phase and increasing concentrations of antibodies (0-20 nM) in solution. […] Binding capacity (EMAX) varied from antibody to antibody, possibly due to partial epitope exposure in the immobilized antigen, but was similar in the human and mouse setting.
# mouse MET ECD = molecular target: T4, mouse MET ECD (mouse, UniProt P16056 25-931); assay: ELISA, MET ECD in solid phase, mAb 0-20 nM
# T4 construct: range 1-931; recombinant ECD made by the applicants; the stated range begins at residue 1; also called mMET; mMET ECD
# Protocol: as §3
# [11] = molecular target: T5, human MET-Fc (R&D Systems) (human, UniProt P08581 25-932); assay: competition ELISA, hMET-Fc in solid phase, competitor 0.3 nM biotinylated hHGF
# T5 construct: extracellular domain; bought chimeric protein; also called hMET; not shown: Fc portion of human IgG1
# T5 sequence (P08581 25-932): as the sequence (P08581 25-932 limits assumed, form in doubt) above
# Protocol: (§4) To investigate along this line, we tested the competition between mAbs and HGF by ELISA. Recombinant human and mouse HGF (R&D Systems) were biotinylated at the N-terminus using NHS-LC-biotin (Thermo Scientific). MET-Fc protein, either human or mouse (R&D Systems), was immobilized in solid phase and then exposed to 0.3 nM biotinylated HGF, either human or mouse, in the presence of increasing concentrations of antibodies (0-120 nM).
# (§5) A MET-Fc chimeric protein (either human or mouse) was immobilized in solid phase and exposed to a fixed concentration of biotinylated HGF (either human or mouse), in the presence of increasing concentrations of antibodies. […] Antibody-HGF competition is expressed as IC₅₀ (the concentration that achieves 50% competition) and IMAX (the maximum % competition reached at saturation).
# [12] = molecular target: T6, mouse MET-Fc (R&D Systems) (mouse, UniProt P16056 25-929, limits assumed); assay: competition ELISA, mMET-Fc in solid phase, competitor 0.3 nM biotinylated mHGF
# T6 construct: bought chimeric protein; also called mMET; not shown: Fc part
# Protocol: as §4, §5
binder,measurement,setting,value
B1,"phospho-MET ELISA EC50, A549 cells",[1],2.48 nM
same,"phospho-MET ELISA EMAX (% HGF activity), A549 cells",[1],70.6%
same,"phospho-MET ELISA EC50, MLP29 cells",[2],2.01 nM
same,"phospho-MET ELISA EMAX (% HGF activity), MLP29 cells",[2],75.4%
same,"scatter score 0-4, HPAF-II, 0.001 nM",[3],0 score
same,"scatter score 0-4, HPAF-II, 0.004 nM",[3],0 score
same,"scatter score 0-4, HPAF-II, 0.012 nM",[3],0 score
same,"scatter score 0-4, HPAF-II, 0.037 nM",[3],0 score
same,"scatter score 0-4, HPAF-II, 0.111 nM",[3],0 score
same,"scatter score 0-4, HPAF-II, 0.333 nM",[3],1 score
same,"scatter score 0-4, HPAF-II, 1.000 nM",[3],2 score
same,"scatter score 0-4, HPAF-II, 3.000 nM",[3],2 score
same,"scatter score 0-4, HPAF-II, 9.000 nM",[3],3 score
same,"scatter score 0-4, MLP29, 0.001 nM",[4],0 score
same,"scatter score 0-4, MLP29, 0.004 nM",[4],0 score
same,"scatter score 0-4, MLP29, 0.012 nM",[4],0 score
same,"scatter score 0-4, MLP29, 0.037 nM",[4],0 score
same,"scatter score 0-4, MLP29, 0.111 nM",[4],0 score
same,"scatter score 0-4, MLP29, 0.333 nM",[4],1 score
same,"scatter score 0-4, MLP29, 1.000 nM",[4],2 score
same,"scatter score 0-4, MLP29, 3.000 nM",[4],2 score
same,"scatter score 0-4, MLP29, 9.000 nM",[4],3 score
same,"protection from staurosporine, viability EC50, MCF10A cells",[5],> 32 nM
same,"protection from staurosporine, viability EMAX, MCF10A cells",[5],39.4%
same,"protection from staurosporine, viability EC50, MLP29 cells",[6],> 32 nM
same,"protection from staurosporine, viability EMAX, MLP29 cells",[6],39.7%
same,"branches per spheroid, LOC cells, 0.5 nM",[7],7 branches
same,"branches per spheroid, LOC cells, 2.5 nM",[7],15.3 branches
same,"branches per spheroid, LOC cells, 12.5 nM",[7],16 branches
same,"branches per spheroid, MLP29 cells, 0.5 nM",[8],14 branches
same,"branches per spheroid, MLP29 cells, 2.5 nM",[8],14.7 branches
same,"branches per spheroid, MLP29 cells, 12.5 nM",[8],22.7 branches
same,EC50,[9],2.29 nM
same,EMAX,[9],110 % relative to control
same,EC50,[10],2.54 nM
same,EMAX,[10],121 % relative to control
same,EC50,human MET ECD,0.106 nM
same,EMAX (OD450),human MET ECD,3.08 AU
same,EC50,mouse MET ECD,0.127 nM
same,EMAX (OD450),mouse MET ECD,2.97 AU
same,IC50,[11],3.87 nM
same,IMAX,[11],51.4%
same,IC50,[12],4.05 nM
same,IMAX,[12],50.7%
B2,"phospho-MET ELISA EC50, A549 cells",[1],1.86 nM
same,"phospho-MET ELISA EMAX (% HGF activity), A549 cells",[1],62.3%
same,"phospho-MET ELISA EC50, MLP29 cells",[2],1.19 nM
same,"phospho-MET ELISA EMAX (% HGF activity), MLP29 cells",[2],71.5%
same,"scatter score 0-4, HPAF-II, 0.001 nM",[3],0 score
same,"scatter score 0-4, HPAF-II, 0.004 nM",[3],0 score
same,"scatter score 0-4, HPAF-II, 0.012 nM",[3],0 score
same,"scatter score 0-4, HPAF-II, 0.037 nM",[3],0 score
same,"scatter score 0-4, HPAF-II, 0.111 nM",[3],0 score
same,"scatter score 0-4, HPAF-II, 0.333 nM",[3],0 score
same,"scatter score 0-4, HPAF-II, 1.000 nM",[3],1 score
same,"scatter score 0-4, HPAF-II, 3.000 nM",[3],2 score
same,"scatter score 0-4, HPAF-II, 9.000 nM",[3],3 score
same,"scatter score 0-4, MLP29, 0.001 nM",[4],0 score
same,"scatter score 0-4, MLP29, 0.004 nM",[4],0 score
same,"scatter score 0-4, MLP29, 0.012 nM",[4],0 score
same,"scatter score 0-4, MLP29, 0.037 nM",[4],0 score
same,"scatter score 0-4, MLP29, 0.111 nM",[4],0 score
same,"scatter score 0-4, MLP29, 0.333 nM",[4],0 score
same,"scatter score 0-4, MLP29, 1.000 nM",[4],1 score
same,"scatter score 0-4, MLP29, 3.000 nM",[4],2 score
same,"scatter score 0-4, MLP29, 9.000 nM",[4],3 score
same,"protection from staurosporine, viability EC50, MCF10A cells",[5],25.4 nM
same,"protection from staurosporine, viability EMAX, MCF10A cells",[5],51.9%
same,"protection from staurosporine, viability EC50, MLP29 cells",[6],30.1 nM
same,"protection from staurosporine, viability EMAX, MLP29 cells",[6],50.2%
same,"branches per spheroid, LOC cells, 0.5 nM",[7],6.7 branches
same,"branches per spheroid, LOC cells, 2.5 nM",[7],13.3 branches
same,"branches per spheroid, LOC cells, 12.5 nM",[7],16.3 branches
same,"branches per spheroid, MLP29 cells, 0.5 nM",[8],14.7 branches
same,"branches per spheroid, MLP29 cells, 2.5 nM",[8],18.7 branches
same,"branches per spheroid, MLP29 cells, 12.5 nM",[8],24.7 branches
same,EC50,[9],2.3 nM
same,EMAX,[9],121 % relative to control
same,EC50,[10],2.37 nM
same,EMAX,[10],115 % relative to control
same,EC50,human MET ECD,0.128 nM
same,EMAX (OD450),human MET ECD,2.62 AU
same,EC50,mouse MET ECD,0.103 nM
same,EMAX (OD450),mouse MET ECD,2.78 AU
same,IC50,[11],1.47 nM
same,IMAX,[11],69.4%
same,IC50,[12],1.56 nM
same,IMAX,[12],62.5%
